Test results taken from the nanobody polyreactivity screen of Harvey et al. (2022).

Assay: yeast display, Sf9 membrane polyspecificity reagent, FACS + sequencing; frameworks hold sequencing errors
Outline: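 A nanobody's polyreactivity label depends on the gate it was sorted from. Yeast display cells were stained with 10% biotinylated, detergent-solubilized Sf9 membrane reagent for 1 hour at 4 °C, enriched on streptavidin microbeads and sorted by FACS. The low and high (top ~1%) gates were set on anti-HA fluorescence for expression and streptavidin fluorescence for reagent binding.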

QVQLVESGGGLVQAGGSLRLSCAASGRILLRNVMGLYRPAPGKERELVAVITRTGITYYADSVKGRFTISRDNAKNTVYLQMISLNPEDTAVYYCAAGLPTYEHDYWGQGTQVTVSS
polyreactivity (PSR sort gate): low polyreactivity

QVQLVESVGGLVQAGGSLRLTCAACGVTFSYNTMGWYRQAPGKERELVAAISRSGGRTYYADSVKGRFTISRDNAKNTVYLQMNSLKPEDTAVYYCARYSVTGFGANSGPEMDYWGHGTQVTVSS
polyreactivity (PSR sort gate): high polyreactivity

QVQLVESGGGVVQAGGSLRLSCAASGFIIARNAMGWYRQAPGKERELVAAISASGGRTYYSDSEKGRFTISRDNAKNTVYLQMNSLKPEDTAVYYCAARRDGRSGSYNYWGQGTQVTVSS
polyreactivity (PSR sort gate): high polyreactivity

QVQLVESGGGLVQAGGSLRLSCAASGRIFRRNVMGWYRQAPGKERELLAAIRGTGSTTYADSVKGRFTISRDNAKNTVYLQMNSLKPEDTAVYYCNAYKGQTGGGGRYGYWGQGTQVTVSS
polyreactivity (PSR sort gate): high polyreactivity

QVQLVESGGGLVQAGGSLRLSCAASGRIFGTHDMGWYRQAPGKESELVAAIRATSGSTYYADSVKGRFTISRDNAKNTVYLQMYSLKPEDTAVYYCAAEIWRYNSYIKYWHRVDYWGQGTQVTVSS
polyreactivity (PSR sort gate): high polyreactivity

QVQLVESGGGLVQAGGSLRLSCAASGRIVGFYGMGWYRQAPGKERELVARITVGGGSTYYADSVKGRFTISRDNAKNTGYLQMNSLKPEDTAVYYCNAVYARYGSQGYEYWGQGTQVTVSS
polyreactivity (PSR sort gate): high polyreactivity

QVQLVESGGGLVQAGGSLRLSCAASGRIFYANAMGWYRQAPGKERELVAAISSGGSTYYADSVKGRFTISRDNAKNTVYLQMNSLKPEDTAVYYCAKDTGSRTDSWTVWHDYWGQGTQVTVSS
polyreactivity (PSR sort gate): low polyreactivity

QVQLVESGGRLVQAGGSIRLSCAASGRIFTDNAMGWYRQAPGKERELVAAISWDGSSTSYADSVKGRFTISRDNAKNTVYLQMNSLQPEDTAVYYCAASGVGTNHYGYWNESDYWGQGTQVTVSS
polyreactivity (PSR sort gate): low polyreactivity

QVQLVESGGGLVQAGGSLRLSCAASGYIFWSYAMGWYRQAPGKERELVAGITASGGSTYYADSVKGRFTISRDNAKNTVYLQMNSLKPEDTAVYYCAAEAYTQYWIYYYWGQCTQVTVSS
polyreactivity (PSR sort gate): high polyreactivity

QVHLVESGGGLVQAGGSLRLSCAASGRTFVINAMGWYRQAPGKERELVAAITWGGGSTYYADSVKGRFTISRDNAKNTVYLQMNSLKPEDTAVYYCATSYSVQYGGSGYYWGQGTQVTVSS
polyreactivity (PSR sort gate): low polyreactivity

QVQLVESGGGLVQAGGSLRLSCAASGFTFYAYAMGWYRQAPGKERELVAAISGRGTSTYYADSVKGRFTISRDNAKNTVYLQMNSLKPEDTAFYYCIKYPLRLYGYDYWGQGTQVTVSS
polyreactivity (PSR sort gate): high polyreactivity

QVQLVESGGGLVHAGGSLRLSCAASGINFFPYAMGWYRQAPGKERELVASINISDSSTYYADSVKGRFTISRDNAKNTVYLQMNSLKPEDTAVYYCAADNRGDSWYWHGYWGQGTQVSVSS
polyreactivity (PSR sort gate): low polyreactivity

QVQLVESGGGLVQAGGSLRLSCAASGRTFWRYVMGWYRQAPGKERELVASITRSGGTTNYADSVKGRFTISRDIAKNTVYLQMNSLKPEDTAVYYCNARTVYSWSREYNYWGQGTQVTVSS
polyreactivity (PSR sort gate): high polyreactivity

QVHLVDSGGGLVQAGGSLRLSCAASGRTFYYYAMGWYRQAHGKERELVATISRTGTTNYADSVKGRFTISRDNAKNTVYLQMNSLKPEDTAVYYCAAERATPWPKNDYWGQGTQVTVSS
polyreactivity (PSR sort gate): high polyreactivity

QVQLQESVDGLVQAGGSLSLSSAASGTIFSDYGMGGYRQAPGKERELLAGISDGCNTNYTDSVKGRCTISRDNAHRVSADEQPETGGYRGVLLRGSERWLLFYVYWGQGTQVTVSS
polyreactivity (PSR sort gate): high polyreactivity

QVQLVESGGGLVQAGGSLRLSCAASGRTFAFNAMGRYRQAPGKEMELVAAISRSGGSTYYADSVKGRFTISRDNAKNTVYLQMNSLKPEDTAVYYCNAYYNRYPGYDYWGQGTQVTVSS
polyreactivity (PSR sort gate): high polyreactivity

QVQLVESGGGLVQAGGSLRLSCAASGSTFYGNAMGRYRQAPGKEWELVAAISWSGGSTYYADSVKGRFTISRDNAKNTVYLQMNSLKPEDTAVYYCNADGSDRVWYDGYDYWGQGTQVTVSS
polyreactivity (PSR sort gate): low polyreactivity

QVQLVESGGGLVQAGGSLRLSCAASGLTFGYYAMGWYRQAPGKERELVAVISGGGGTHYADSVKGRFTISRDNAKNTVYLQMNSLKPEDTAVYYCAARYRAQQIARYYYWGQGTQVTVSS
polyreactivity (PSR sort gate): high polyreactivity

QVQLVESGGGLVQAGGSLRLSCAASGIIFYRYALGWYRQAPRTERELVAAISSSGTNTYYADSVKGRFTISRDNAKNTVYLQMNSLKPEDTAVYYCNADTLADRSTYDYWGQGTQVNVSS
polyreactivity (PSR sort gate): low polyreactivity

QVQLVESGGGLVQAGGSLRLSCAASGFTFSWYAMGWYRQAPGKERELVAAITRSGGSTNYADSVKGRFTISRDNAKNTVYLQMNSLKPEDTAVYYCNAAGYRRSTWWYDYWGQGTQVTVSS
polyreactivity (PSR sort gate): high polyreactivity

QVQLVESGGGLVQAGGSLRLSCAASGSTFYLYAMGWYRQAPGKEREFVARISASGGNTYYADSVKGRFTISRDNAKNTVYLQMNSLKPEDTAVYYCATRGSRYPYVAYNYWGQGTQVTVSS
polyreactivity (PSR sort gate): high polyreactivity

QVQLVESGGGLVQAGGSLRLSCAASGITFGRNTMGWYRQAPGKESELVAAIDSGGNTYADSVKGRFTISRDNAKNTVYLQMNSLKPEDTAVYYCAADNSVGEYQRVDYDYWGQGTQVTVSS
polyreactivity (PSR sort gate): low polyreactivity

QVQLVESGGGLVQAGGSLRLSCAASGGIFRLYGMGWYRQAPGKERELVAAIRQSGGRTYYADSVKGRFTISRDNAKNTVYLQMNSLKPEDTAVYYCAADLLYRSSGTVRSDYSRYDYWGQGTQVTVSS
polyreactivity (PSR sort gate): low polyreactivity

QVQLVESGGGLVQAGGSLRLSCAASGNTFAPNAMGWYRQAPGKERELVAVISWSSGRTYYADSVKGRFTISRDNAKNTVYLQMNSLKPEDTAVYYCAARFGSGFNYWGQGTQVTVSS
polyreactivity (PSR sort gate): high polyreactivity

QVQHVESGGGLVQAGGSLRLSCAASGITFYRYAMGWYIQAPGKERELVAAINASGGSTYYADSVKGRFTISRDKAKNTVYLQMNSLKPEDTAVYYCAADRVSWVKHYYWGQGTKVTVSS
polyreactivity (PSR sort gate): high polyreactivity

QVQLVESVGGLVQAGGSLRLSCAASGFTFRYYAMGSYRQAPGKERELVAAISRTGRTYYADSVKGRFTISRDNAKNTVYLQMNSLKPEDTAVYYCAADPPGYVFGKRYYWGHGTQVTVSS
polyreactivity (PSR sort gate): high polyreactivity

QVQLVESGGGLVQAGGRLRLSCAASGRTIYGYDKGWYRQAPGKERELVAAINIGGRTNYADSVKGRFTISRDNAKNTVYLQMNSLKPEDTAVYYCADRYTFGPYLARSYGYWGQGTQVTVSS
polyreactivity (PSR sort gate): low polyreactivity

QVQLVESGGGLVQAGGSLRLSCAASGLTFGTYAMGWYRQAPGKERELVAAIRSGGSTNYADSVKGRFTISRDTAKNTVYLQMNILKPEDNAVYYCAKRYYWDRYYYWGQGTPVTVSS
polyreactivity (PSR sort gate): high polyreactivity

QVQLVESGGRLVQAGGSIRLSCAASGRTFYNNAMGWYRQAPGKERELVAAISSGGSTYYADSVKGRFTISRDNAKNTVYLQMNSLKPEDTAVYYCNVRRGGWGYRYYYWGQGNQVTVSS
polyreactivity (PSR sort gate): high polyreactivity

QVQLVESGGGLVQAGGSLRLSCAASGLIFRWYAMAWYRQAPGKERELVAAISRRGGTTNYADSVKGRFTISRDNAKNTVYLQMNTLKPEDTAVYYCAADYQSVGGAEYDYWGQGTQVTVSS
polyreactivity (PSR sort gate): high polyreactivity

QVQLVESGGGLVQAGGSLRLSFAASARTFYIYPMGWYRQAPGKERELVAAITYGGGRTFYADSVKGRFTISRDNANNTVYLQMNSLKPEDTAVYYCAATVRGKRSTYDYWGQGTQVTVSS
polyreactivity (PSR sort gate): high polyreactivity

QVQLVESGGGLVQAGGSLRLSCAASGSTFGYYTMGWYRQAPGKERELVAAISRSGGRTYYADSVKGRFTISRDNAKNAVYLQMNSLKPEDTAVYYCNADGTRYAGDDYWGQGTQVTVSS
polyreactivity (PSR sort gate): high polyreactivity

QVQLVESGGGLVQAGGSLRLSCAASGTLATYAMGWYRQAPGKERELVAAIRYSDGRTYYADSVKGRFTISRDNAKNTFYLQMNSLKPEDTAVYYCAASFRGRGKKLDYWGQGTQVTVSS
polyreactivity (PSR sort gate): low polyreactivity

QVQLVESGGGLVQAGGSLRLSCAASGITIVRYAMGWSRQAPGKERELVAAINRSGGSTYYADSVKGRFTISRDNAKNTVYLQMNSLKPEDTAVYYCAARLYGKYDPPGYYYWGQGTQVTVSS
polyreactivity (PSR sort gate): high polyreactivity

QVQLEESGGGLVQAGGSLRLSCAASGSIFYLNDMGWYRQAPGKEREFVAAIDSRGTSTYYADSVKGRFTISRDNAKNTVYLQMNSLKPEDTAVYYCAADSYALEYDYWGQGTQVTVSS
polyreactivity (PSR sort gate): low polyreactivity

QVQLVESGGGLVQAGGSLRLICAASGFTFYRYAMGWYRQAPGKERELVAAITRSGGSTYYADSVKGRFTISRDNAKNTVYLQMNSLKPEDTAVYYCARTYWITNSKFRDYLGAYGGDYWGQGTQVTVSS
polyreactivity (PSR sort gate): high polyreactivity

QVQLVESGGGLVQAGGSLRLSCAASGSTFVPNAMGWYRQAPGKEREFVAAIRVSGDNTYYADSVKGRFTISRDNAKNTVYLQMNSLKPEDTGVYYCAATGTVLGSVDYWGQGTQVTVSS
polyreactivity (PSR sort gate): low polyreactivity

QVQLVESGGGLVQAGGSLRLICAASGFIFWRYAMGWYRQAPGKERELVAAISRTSTSTYYADSVKGRFTISRDNAKNSVYLQMNSLKPEDTAVYYCAATFSTFYGYGYWGQGSQVTVSS
polyreactivity (PSR sort gate): high polyreactivity

QVQLVESGGGLVQAGGSLRLSCDASGSTFRWYTMGWYRPAPGKEREVVATISRSGGSTYNADSVKGRFTISRDNAKNTVYLQMNSLKPEDTAVYYCNKLGVSTHSYKYYYWGQGTQVTVSS
polyreactivity (PSR sort gate): high polyreactivity

QVHLVESGGGLVQAGGSLRLSCAPSGRIFFPYAMGWYRQAPGKEREFVAAIRRSGGSTYYADSVKGRFTISRDNAKNTVYLQMNSLKPEDTAVYYCNAPLKRYGYYKYGYWGQGTQVTVSS
polyreactivity (PSR sort gate): high polyreactivity

QVQLVESGGGLVQAGGSLRLSCAASGRIFYGNTMGWYRQAPGKERELVAAISRSGGSTYYADSVKGRFTISRDNAKNTVYLQMNSLKPEDTAVYYCNARYYRKYDYWGQGTQVTVSS
polyreactivity (PSR sort gate): high polyreactivity

QVQLVESGGGLVQAGGRLRLSCAASGRIFPVNAMGWYRQAPGKERELVAGITWSGDGSTYYADSVKGRFTISRDNAKNTVYLQMNSLKPEDTAVYYCAARLNLQGRYDYSGQGTQVTVSS
polyreactivity (PSR sort gate): low polyreactivity

QVQLVESGGGLVQAGGSLRLSCAASGSIFPSYAMGWYRQAPGKERELVAAISSRGGSTYYADSVKGRFTISRDNAKNTVYLQMNSLKPEDTAVYYCAADWSYYRRHFDYWGQGTQVTVSS
polyreactivity (PSR sort gate): high polyreactivity
